# In patent US20230322953A1 (HARBOUR BIOMED SHANGHAI, published 2023):
# Tests used:
# [1] = target: T1, human PD-L1 (programmed death ligand 1) (human, UniProt Q9NZQ7 19-290); experiment: flow cytometry (FACS) on CHO-K1/hPDL1 cells, Experiment 3
# T1 construct: whole, on cells; also called hPDL1; CD274
# [2] = target: T2, human CTLA4 on cells (CHO-K1/hCTLA4; HEK293/hCTLA4; 293F-hCTLA4) (human, UniProt P16410 36-223); experiment: FACS, CHO-K1/hCTLA4 cells (Test 2)
# T2 construct: whole, on cells
# [3] = target: T3, human PD-L1 on cells (CHO-K1/hPDL1; MDA-MB-231) (human, UniProt Q9NZQ7 19-290); experiment: FACS, CHO-K1/hPDL1 cells (Experiment 2)
# T3 construct: whole, on cells
# [4] = target: T3, human PD-L1 on cells (CHO-K1/hPDL1; …); experiment: competition FACS: biotinylated PD-1 to CHO-K1/hPDL1 cells
# [5] = target: T2, human CTLA4 on cells (CHO-K1/hCTLA4; …); experiment: competition FACS: biotinylated B7-1-Fc to CHO-K1/hCTLA4 cells (Test 2)
# [6] = target: T3, human PD-L1 on cells (CHO-K1/hPDL1; …); experiment: competition FACS: biotinylated PD-1 to CHO-K1/hPDL1 cells (Experiment 2)
# [7] = target: T4, human CTLA4 on CHO-K1/hCTLA4 cells (human, UniProt P16410 36-223); experiment: flow cytometry on CHO-K1/hCTLA4 cells, Experiment 1
# T4 construct: whole, on cells; CHO-K1 cell line highly expressing human CTLA4; also called human CTLA4 cell
# [8] = target: T1, human PD-L1 (programmed death ligand 1); experiment: flow cytometry (FACS) on CHO-K1/hPDL1 cells, Experiment 1
# cynomolgus monkey 4-1BB = target: T5, cynomolgus monkey 4-1BB (cynomolgus monkey); experiment: flow cytometry (FACS) on CHO-K1/cyno 4-1BB cells, Experiment 1
# T5 construct: whole, on cells; also called cyno 4-1BB
# T1 sequence (Q9NZQ7 19-290): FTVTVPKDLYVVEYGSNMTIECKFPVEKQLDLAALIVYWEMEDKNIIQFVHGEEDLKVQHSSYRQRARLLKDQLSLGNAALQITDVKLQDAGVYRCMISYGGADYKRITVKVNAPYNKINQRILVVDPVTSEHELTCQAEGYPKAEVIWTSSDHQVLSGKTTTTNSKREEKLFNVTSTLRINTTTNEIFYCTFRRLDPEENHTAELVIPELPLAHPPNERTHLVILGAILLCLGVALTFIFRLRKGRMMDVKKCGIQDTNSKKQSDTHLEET
# T3 sequence (Q9NZQ7 19-290): as above
# T4 sequence (P16410 36-223): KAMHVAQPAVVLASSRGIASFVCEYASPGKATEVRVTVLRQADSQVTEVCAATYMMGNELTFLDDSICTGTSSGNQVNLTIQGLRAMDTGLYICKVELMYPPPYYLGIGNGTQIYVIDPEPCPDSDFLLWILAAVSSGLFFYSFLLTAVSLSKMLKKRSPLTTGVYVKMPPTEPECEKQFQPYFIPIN
# T2 sequence (P16410 36-223): as above
Maximum MFI [2] [MFI],EC50 [3] [nM],Maximum MFI [3] [MFI],fold poorer IC50 than the parent monoclonal antibody [4] [fold],IC50 [5] [nM],Maximum inhibition rate (%) [5] [%],IC50 [6] [nM],Maximum inhibition rate (%) [6] [%],Binder,also measured
,,,,,,,,"PR007164, PD-L1×4-1BB bispecific antibody molecule of Fab-HCAb symmetric structure (bispecific antibody, human IgG1, Structure 1 Fab(CL)-VH-Fc; Fab of PR000265, VH of PR001760; no first linker, human IgG1 hinge (C220S); human IgG1 (L234A, L235A)) chain 1: EVQLVESGGGLVQPGGSLRLSCAASGFTFSSYWMSWVRQAPGKGLEWVANIKQEGSEKYYVDSVKGRFTISRDNAKNSLYLQMNSLRAEDTAVYYCARDRAVAGAFDIWGQGTMVTVSSASTKGPSVFPLAPSSKSTSGGTAALGCLVKDYFPEPVTVSWNSGALTSGVHTFPAVLQSSGLYSLSSVVTVPSSSLGTQTYICNVNHKPSNTKVDKKVEPKSC chain 2: not shown",EC50 [1]: 1.93 nM; Maximum MFI [1]: 51400 MFI
415,2.41,5880,4 to 6,3.79,100,1.74,81.7,"PR001575 (bispecific antibody, human IgG1, kappa, PD-L1×CTLA4, structure 9) chain 1: EVQLVESGGGLIQPGGSLRLSCAVSGFTVSKNYMSWVRQAPGKGLEWVSVVYSGGSKTYADSVKGRFTISRDNSKNTLYLQMNSLRAEDTAVYYCARAVPHSPSSFDIWGQGTMVTVSSKLEPKSSDKTHTPPPPPRTDIQMTQSPSTLSASVGDRVTVTCRASQSIYIWLAWYQQKPGKAPNLLIYKASSLETGVPSRFSGSGSGTEFTLTISSLQPDDFATYYCQQYYGSSRTFGQGTKVEIKRTVAAPSVFIFPPSDEQLKSGTASVVCLLNNFYPREAKVQWKVDNALQSGNSQESVTEQDSKDSTYSLSSTLTLSKADYEKHKVYACEVTHQGLSSPVTKSFNRGEC chain 2: not shown",EC50 [2]: 5.08 nM
434,1.07,5830,4 to 6,2.98,100,1.4,80.7,"PR001572 (bispecific antibody, human IgG1, kappa, PD-L1×CTLA4, structure 9 2×VH-IgG) chain 1: EVQLVESGGGLIQPGGSLRLSCAVSGFTVSKNYMSWVRQAPGKGLEWVSVVYSGGSKTYADSVKGRFTISRDNSKNTLYLQMNSLRAEDTAVYYCARAVPHSPSSFDIWGQGTMVTVSSKLEPKSSDKTHTPPPPPRTDIQMTQSPSTLSASVGDRVTVTCRASQSIYIWLAWYQQKPGKAPNLLIYKASSLETGVPSRFSGSGSGTEFTLTISSLQPDDFATYYCQQYYGSSRTFGQGTKVEIKRTVAAPSVFIFPPSDEQLKSGTASVVCLLNNFYPREAKVQWKVDNALQSGNSQESVTEQDSKDSTYSLSSTLTLSKADYEKHKVYACEVTHQGLSSPVTKSFNRGEC chain 2: not shown",EC50 [2]: 2.91 nM
355,1.51,11200,4 to 5,98.3,95,1.12,81.6,"PR001609 (bispecific antibody, human IgG1, kappa, PD-L1×CTLA4, structure 11 Fab-Fc-VH, knob/hole) light: DIQMTQSPSTLSASVGDRVTVTCRASQSIYIWLAWYQQKPGKAPNLLIYKASSLETGVPSRFSGSGSGTEFTLTISSLQPDDFATYYCQQYYGSSRTFGQGTKVEIKRTVAAPSVFIFPPSDEQLKSGTASVVCLLNNFYPREAKVQWKVDNALQSGNSQESVTEQDSKDSTYSLSSTLTLSKADYEKHKVYACEVTHQGLSSPVTKSFNRGEC heavy: not shown EVQLVESGGGLIQPGGSLRLSCAVSGFTVSKNYMSWVRQAPGKGLEWVSVVYSGGSKTYADSVKGRFTISRDNSKNTLYLQMNSLRAEDTAVYYCARAVPHSPSSFDIWGQGTMVTVSSEPKSSDKTHTCPPCPAPELLGGPSVFLFPPKPKDTLMISRTPEVTCVVVDVSHEDPEVKFNWYVDGVEVHNAKTKPREEQYNSTYRVVSVLTVLHQDWLNGKEYKCKVSNKALPAPIEKTISKAKGQPREPQVCTLPPSREEMTKNQVSLSCAVKGFYPSDIAVEWESNGQPENNYKTTPPVLDSDGSFFLVSKLTVDKSRWQQGNVFSCSVMHEALHNHYTQKSLSLSPGK",
,,,,,,,,"HER2xCTLA4 bispecific antibody molecule PR000916 (bispecific antibody, human IgG1, kappa, Structure 11 Fab-Fc-VH (bivalent asymmetric); PR000210 Fab (normal), one PR000184 VH) light: not shown heavy: not shown EVQLVESGGGLIQPGGSLRLSCAVSGFTVSKNYMSWVRQAPGKGLEWVSVVYSGGSKTYADSVKGRFTISRDNSKNTLYLQMNSLRAEDTAVYYCARAVPHSPSSFDIWGQGTMVTVSSEPKSSDKTHTCPPCPAPELLGGPSVFLFPPKPKDTLMISRTPEVTCVVVDVSHEDPEVKFNWYVDGVEVHNAKTKPREEQYNSTYRVVSVLTVLHQDWLNGKEYKCKVSNKALPAPIEKTISKAKGQPREPQVCTLPPSREEMTKNQVSLSCAVKGFYPSDIAVEWESNGQPENNYKTTPPVLDSDGSFFLVSKLTVDKSRWQQGNVFSCSVMHEALHNHYTQKSLSLSPGK",EC50 [7]: 4.68 nM; Maximum MFI [7]: 151 MFI
,,,,,,,,"PR007163, PD-L1×4-1BB bispecific antibody molecule of Fab-HCAb symmetric structure (bispecific antibody, human IgG1, Structure 2 Fab(CH1)-VH-Fc; Fab of PR000265, VH of PR001760; no first linker, human IgG1 hinge (C220S); human IgG1 (L234A, L235A)) light: DIQMTQSPSTLSASVGDRVTVTCRASQSIYIWLAWYQQKPGKAPNLLIYKASSLETGVPSRFSGSGSGTEFTLTISSLQPDDFATYYCQQYYGSSRTFGQGTKVEIKRTVAAPSVFIFPPSDEQLKSGTASVVCLLNNFYPREAKVQWKVDNALQSGNSQESVTEQDSKDSTYSLSSTLTLSKADYEKHKVYACEVTHQGLSSPVTKSFNRGEC not shown",EC50 [1]: 2.26 nM; Maximum MFI [1]: 51300 MFI
,,,,,,,,"PR003550, PD-L1×4-1BB bispecific antibody molecule of IgG-VH tetravalent symmetric structure (bispecific antibody, Structure 5; IgG PR000265, VH of PR001760 at C-terminus of heavy chain; linker H1_15-RT; human IgG1 (L234A, L235A, P329G)) light: DIQMTQSPSTLSASVGDRVTVTCRASQSIYIWLAWYQQKPGKAPNLLIYKASSLETGVPSRFSGSGSGTEFTLTISSLQPDDFATYYCQQYYGSSRTFGQGTKVEIKRTVAAPSVFIFPPSDEQLKSGTASVVCLLNNFYPREAKVQWKVDNALQSGNSQESVTEQDSKDSTYSLSSTLTLSKADYEKHKVYACEVTHQGLSSPVTKSFNRGEC heavy: EVQLVESGGGLVQPGGSLRLSCAASGFTFSSYWMSWVRQAPGKGLEWVANIKQEGSEKYYVDSVKGRFTISRDNAKNSLYLQMNSLRAEDTAVYYCARDRAVAGAFDIWGQGTMVTVSSASTKGPSVFPLAPSSKSTSGGTAALGCLVKDYFPEPVTVSWNSGALTSGVHTFPAVLQSSGLYSLSSVVTVPSSSLGTQTYICNVNHKPSNTKVDKKVEPKSCDKTHTCPPCPAPEAAGGPSVFLFPPKPKDTLMISRTPEVTCVVVDVSHEDPEVKFNWYVDGVEVHNAKTKPREEQYNSTYRVVSVLTVLHQDWLNGKEYKCKVSNKALGAPIEKTISKAKGQPREPQVYTLPPSREEMTKNQVSLTCLVKGFYPSDIAVEWESNGQPENNYKTTPPVLDSDGSFFLYSKLTVDKSRWQQGNVFSCSVMHEALHNHYTQKSLSLSPGEPKSSDKTHTPPPPPRTEVQLVESGGGVVQPGGSLRLSCAASGFTFSNYAMTWVRQAPEKGLEWVSSISGSGVSTYYADSVKGRFTISRDNSKNTLYLQMTRLTAEDTAVYFCAKEGSSETDDHYYNVDVWGQGTTVTVSS",EC50 [8]: 1.11 nM; Maximum MFI [8]: 2250 MFI; EC50 (cynomolgus monkey 4-1BB): 1.32 nM; Maximum MFI (cynomolgus monkey 4-1BB): 5360 MFI
468,1.37,11100,4 to 5,96.6,61.3,1.23,80.2,"PR001610 (bispecific antibody, human IgG1, kappa, PD-L1×CTLA4, structure 11, knob/hole, DE) light: DIQMTQSPSTLSASVGDRVTVTCRASQSIYIWLAWYQQKPGKAPNLLIYKASSLETGVPSRFSGSGSGTEFTLTISSLQPDDFATYYCQQYYGSSRTFGQGTKVEIKRTVAAPSVFIFPPSDEQLKSGTASVVCLLNNFYPREAKVQWKVDNALQSGNSQESVTEQDSKDSTYSLSSTLTLSKADYEKHKVYACEVTHQGLSSPVTKSFNRGEC heavy: not shown EVQLVESGGGLIQPGGSLRLSCAVSGFTVSKNYMSWVRQAPGKGLEWVSVVYSGGSKTYADSVKGRFTISRDNSKNTLYLQMNSLRAEDTAVYYCARAVPHSPSSFDIWGQGTMVTVSSEPKSSDKTHTCPPCPAPELLGGPDVFLFPPKPKDTLMISRTPEVTCVVVDVSHEDPEVKFNWYVDGVEVHNAKTKPREEQYNSTYRVVSVLTVLHQDWLNGKEYKCKVSNKALPAPEEKTISKAKGQPREPQVCTLPPSREEMTKNQVSLSCAVKGFYPSDIAVEWESNGQPENNYKTTPPVLDSDGSFFLVSKLTVDKSRWQQGNVFSCSVMHEALHNHYTQKSLSLSPGK",
,,,,,,,,"HER2xCTLA4 bispecific antibody molecule PR000917 (bispecific antibody, human IgG1, kappa, Structure 11 Fab-Fc-VH; PR000210 Fab (normal), one PR000184 VH; DE: S239D, I332E) light: not shown heavy: not shown EVQLVESGGGLIQPGGSLRLSCAVSGFTVSKNYMSWVRQAPGKGLEWVSVVYSGGSKTYADSVKGRFTISRDNSKNTLYLQMNSLRAEDTAVYYCARAVPHSPSSFDIWGQGTMVTVSSEPKSSDKTHTCPPCPAPELLGGPDVFLFPPKPKDTLMISRTPEVTCVVVDVSHEDPEVKFNWYVDGVEVHNAKTKPREEQYNSTYRVVSVLTVLHQDWLNGKEYKCKVSNKALPAPEEKTISKAKGQPREPQVCTLPPSREEMTKNQVSLSCAVKGFYPSDIAVEWESNGQPENNYKTTPPVLDSDGSFFLVSKLTVDKSRWQQGNVFSCSVMHEALHNHYTQKSLSLSPGK",EC50 [7]: 9.8 nM; Maximum MFI [7]: 142 MFI
